Reference: publication doi:10.1101/2021.12.15.472864 (bioRxiv, 2021)

Biological target: SARS-CoV-2 spike receptor-binding domain (RBD), residues 333-529 (SARS-CoV-2, UniProt P0DTC2)
Experiment: crystal structure

B1: ADI-62113 Fab (Fab, V domains shown)
VH: QVQLQQSGAEVKKPGASVKLSCKASGYTFSVFPIHWVRQAPGQRLEWMGWHNAGDGDTKYSQKFQGRVTIISDTSASTAYMELSSLKSEDTAVYYCARAARPYYDRRGYFFRADYFQHWGQGTLVTVSS
VL: DIQVTQSPSSLSASVGDRVTITCQASQDIKNSLNWYQQKPGKAPKLLISDASNLETGVPSRFSGNGSGTDFTFTISSLQPEDIATYYCQQYDNLITFGPGTKVEIK
B1: binds.
